The values below come from US20170145086A1 (VISTERRA, published 2017).

In test [1] the target is T1, HA-GCN4 hAPRIL (amino acid residues 105-250) (human, UniProt O75888 105-250).
T1 construct: Bought (R&D Systems); also called HA-tagged GCN4 human APRIL; HA-GCN4-huAPRIL; not shown: N-terminal HA tag; GCN4 isoleucine zipper oligomerization domain
T1 sequence: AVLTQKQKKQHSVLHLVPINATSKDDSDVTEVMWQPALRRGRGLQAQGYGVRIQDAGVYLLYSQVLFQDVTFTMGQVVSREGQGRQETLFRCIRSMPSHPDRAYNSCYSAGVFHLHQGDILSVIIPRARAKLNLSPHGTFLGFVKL
Briefly: blocking ELISA; blocked: human APRIL binding to TACI-Fc. A general note: ELISA stands for enzyme-linked immunosorbent assay.

The target of test [2] is T1, HA-GCN4 hAPRIL (amino acid residues …). Kind of test: blocking ELISA; blocked: human APRIL binding to BCMA-Fc. The procedure:
(§1) Recombinant TACI-Fc or BCMA-Fc was coated on 96 well plates in 0.1 M carbonate-bicarbonate buffer (pH 9.6), overnight at 4° C. Plates were washed three times with 1×PBST (PBS+0.025% Tween 20) followed by blocking with 1% BSA in 1×PBS, 37° C. for 1 hour. All subsequent wash steps were carried out with 1×PBST. To assess antibody blocking, either 15 ng/mL or 50 ng/mL HA-GCN4-huAPRIL was preincubated with varying antibody concentrations ranging from 0.03-30 μg/mL in binding buffer comprised of 1% BSA and 0.025% Tween-20 in 1×PBS. Preincubation was carried out at 30° C. for 1 hour with mixing. Antibody-APRIL premix with 50 ng/mL APRIL or 15 ng/mL APRIL was then added to TACI-Fc coated or BCMA-Fc coated plates, respectively, and incubated for an additional hour at 30° C. HA-tagged APRIL binding to either receptor was quantified using a goat polyclonal anti-HA tag-HRP antibody (Abcam) added at a 1:10000 dilution followed by colorimetric development using 100 μl/well of freshly prepared TMB substrate (KPL) carried out for up to 30 minutes at room temperature before quenching enzymatic reaction by the addition of 1N sulfuric acid. ELISA signal was quantified by absorbance at 450 nm. ELISA data was analyzed by non-linear regression. IC₅₀ values were calculated based on a 4 parameter fit of antibody titration curves. […] Non-blocking antibodies Aprly-1 or Aprly-5 (Enzo Biosciences) were used as negative controls. Mouse specific, blocking antibody aprily-1-1 (Adipogen) was generally used as a positive control in experiments using mouse APRIL (HA-GCN4-mAPRIL).
Assay is based on receptor blocking ELISA using recombinant human APRIL (R&D Systems) and either human TACI-Fc (FIG. 30A) or BCMA-Fc (FIG. 30B).

For test [3] the target is unchanged. Briefly: indirect ELISA on human APRIL.
Test [4] shares this target. Kind of test: cell-based or functional assay.
The target is the same in test [5]. Kind of test: blocking ELISA; blocked: human APRIL binding to human BCMA-Fc. The arrangement: concentration or dose not given beside the values. On the procedure: (§2) FIGS. 19A-19B depict the antibody inhibition of APRIL binding to TNFSF receptors TACI (FIG. 19A) and BCMA (FIG. 19B). Assay is based on blocking ELISA using recombinant human APRIL (R&D Systems) and Human TACI-Fc. Inhibition was analyzed by non-linear regression using a four parameter fit.
as §1

The target is the same in test [6]. Briefly: indirect ELISA on human APRIL; column head prints IC50 (pM), legend paragraph 725 calls the values EC50. From the text: Purified antibodies were further characterized for APRIL binding, APRIL species cross reactivity (human APRIL vs. mouse APRIL), and receptor blocking activity using TACI-Fc. For binding, an APRIL-based indirect ELISA was used to determine by first approximation the relative affinity of purified anti-APRIL antibodies to either human APRIL or mouse APRIL. ELISA method was as generally described above. […] Blocking and wash steps were completed as described. Binding of anti-APRIL antibodies to APRIL was quantified using an 8 point dilution of test antibody that spanned over a four log scale. Antibody binding to APRIL was detected using a rabbit anti-mouse IgG (H+L)-HRP conjugate (Jackson ImmunoResearch Laboratories). Antibody binding data was analyzed by non-linear regression analysis using a 3 parameter fit to determine max binding and apparent EC₅₀ values. […] Mouse specific antibody Apry-1-1 (Adipogen) was likewise used for quantification of antibody binding to mouse APRIL.

For test [7] the target is unchanged. Kind of test: blocking ELISA, 4-parameter fit; blocked: human APRIL binding to human TACI-Fc. The procedure: as §2, §1
Test [8] shares this target. Briefly: blocking ELISA, 4-parameter fit; blocked: human APRIL binding to human BCMA-Fc. On the procedure: as §2, §1
Test [9] shares this target. Briefly: blocking ELISA; blocked: human APRIL binding to human TACI-Fc. The arrangement: concentration or dose not given beside the values. The procedure:
as §2, §1

B1: 2419-0406 (antibody, V domains shown)
VH: QVQLVQSGAEVKKPGSSVKVSCKASGYTFTDYTIHWVRQAPGQGLEWMGWIYPLRGSINYAEKFKGRVTLTADKSTSTVYMELSSLRSEDTAVYFCARHGAYYSNAFDYWGQGTLVTVSS
VL: EIVMTQSPATLSVSPGERATLSCRASESVDNDGIRFLHWYQQKPGQAPRLLIYRASTRATGIPARFSGSGSRTEFTLTISSLQSEDFAVYYCQQSNKDPYTFGGGTKVEIK
Regarding B1, in [1], the IC50 (commonly the concentration that inhibits the measured activity by half) was determined as 330 pM and the “Relative Activity (normalised to 2419)” value was 1.2. For the same molecule, in test [2], the IC50 amounted to 250 pM and the “Relative Activity (normalised to 2419)” value came to 1.05.

B2: 2419-1310 (antibody, V domains shown)
VH: QVQLVQSGAEVKKPGASVKVSCKASGYTFTDYTIHWVRQATGQGLEWMGWIYPLRGSINYAQKFQGRVTMTANKSISTVYMELSSLRSEDTAVYFCARHGAYYSNAFDYWGQGTLVTVSS
VL: DIVMTQSPDSLAVSLGERATINCKSSQSVDNDGIRFLHWYQQKPGQPPKLLIYRASTRESGVPDRFSGSGSGTDFTLTISSLQAEDVAVYYCQQSNKDPYTFGGGTKVEIK
For the molecule B2, in test [1], the IC50 was found to be 300 pM and the “Relative Activity (normalised to 2419)” value is 1.09. In test [3], the EC50 (usually the concentration needed to bring the measured effect to its halfway point) turned out to be 2.19 pM. In test [2], the IC50 amounted to 270 pM and the “Relative Activity (normalised to 2419)” value was 1.14.

B3: 2419-0806 (antibody, V domains shown)
VH: EVQLVQSGAEVKKPGESLKISCKASGYTFTDYTIHWVRQMPGKGLEWMGWIYPLRGSINYSPSFQGQVTISADKSISTVYLQWSSLKASDTAMYFCARHGAYYSNAFDYWGQGTLVTVSS
VL: EIVMTQSPATLSVSPGERATLSCRASESVDNDGIRFLHWYQQKPGQAPRLLIYRASTRATGIPARFSGSGSRTEFTLTISSLQSEDFAVYYCQQSNKDPYTFGGGTKVEIK
In the case of B3, in test [1], the IC50 came out at 320 pM and the “Relative Activity (normalised to 2419)” value is 1.17. The molecule further gave an EC50 in test [3] of 2.31 pM. For the same molecule, in [2], the IC50 was 210 pM and the “Relative Activity (normalised to 2419)” value was 0.89.

B4: 2419-1305 (antibody, V domains shown)
VH: QVQLVQSGAEVKKPGASVKVSCKASGYTFTDYTIHWVRQATGQGLEWMGWIYPLRGSINYAQKFQGRVTMTANKSISTVYMELSSLRSEDTAVYFCARHGAYYSNAFDYWGQGTLVTVSS
VL: EIVMTQSPATLSVSPGERATLSCRASESVDNDGIRFLHWYQQKPGQAPRLLIYRASNRETGIPARFSGSGSGTEFTLTISSLQSEDFAVYYCQQSNKDPYTFGGGTKVEIK
As to B4, in [1], the IC50 came to 290 pM and the “Relative Activity (normalised to 2419)” value is 1.06. It took 2.41 pM to reach a half-maximal effect in test [3] (EC50). In addition, in test [2], the IC50 amounted to 150 pM and the “Relative Activity (normalised to 2419)” value turned out to be 0.62.

B5: monoclonal antibody 2419-0205 (antibody, IgG2, V domains shown)
VH: QVQLVQSGAEVKKPGSSVKVSCKASGYTFTDYTIHWVRQAPGQGLEWMGWIYPLRGSINYAQKFQGRVTITADKSTSTAYMELSSLRSEDTAVYFCARHGAYYSNAFDYWGQGTLVTVSS
VL: EIVMTQSPATLSVSPGERATLSCRASESVDNDGIRFLHWYQQKPGQAPRLLIYRASNRETGIPARFSGSGSGTEFTLTISSLQSEDFAVYYCQQSNKDPYTFGGGTKVEIK
As to B5, in test [4], the “IC50 (inhibition of APRIL-mediated BCMA NFκB signaling)” value is roughly 320 pM and the “IC50 (inhibition of APRIL-mediated TACI NFκB signaling)” value was roughly 810 pM. Besides, in test [1], the IC50 was determined as 310 pM and the “Relative Activity (normalised to 2419)” value amounted to 1.12. The molecule further gave an EC50 in test [3] of 2.26 pM. In [2], the IC50 is 170 pM and the “Relative Activity (normalised to 2419)” value was found to be 0.71.

B6: 2419-1306 (antibody, V domains shown)
VH: QVQLVQSGAEVKKPGASVKVSCKASGYTFTDYTIHWVRQATGQGLEWMGWIYPLRGSINYAQKFQGRVTMTANKSISTVYMELSSLRSEDTAVYFCARHGAYYSNAFDYWGQGTLVTVSS
VL: EIVMTQSPATLSVSPGERATLSCRASESVDNDGIRFLHWYQQKPGQAPRLLIYRASTRATGIPARFSGSGSRTEFTLTISSLQSEDFAVYYCQQSNKDPYTFGGGTKVEIK
With B6, in test [4], the “IC50 (inhibition of APRIL-mediated BCMA NFκB signaling)” value was roughly 300 pM and the “IC50 (inhibition of APRIL-mediated TACI NFκB signaling)” value is roughly 660 pM. In addition, in test [1], the IC50 was found to be 280 pM and the “Relative Activity (normalised to 2419)” value amounted to 1.03. This molecule came in with an EC50 in [3] of 3 pM. In addition, in [2], the IC50 amounted to 170 pM and the “Relative Activity (normalised to 2419)” value amounted to 0.72.

B7: 3934 (antibody, V domains shown)
VH: QVQLQQSGPELVKPGASVKLSCKAAGYIFTDYTINWVKQSPGQGLEWIGWIYPGSGNRKYNDKFKGKATMTADKSSSTAYMQLSSLTSEDSAVYFCARESNYVGYYAMDYWGQGTSVTVSS
VL: DVLMTQTPLSLPVSLGDQASISCRSSQSVVNSNGNTYLEWYLQKPGQSPNLLIYKVSNRFSGVPDRFSGSGSGTDFTLKISRVEAEDLGVYYCFQGSHVPWTFGGGTKLEIK
notes: also called monoclonal antibody 3934
As to B7, the entries for the “% Inhibition” value in [5] and in test [9] were 98% and 96%, respectively. Also, in [6], a half-maximal response (EC50) required 10.1 pM. In addition, the results for the half-inhibitory concentration (IC50) in [7] and in test [8] were 2430 pM and 210 pM, respectively.

B8: 4540-033 (antibody, V domains shown)
VH: QVQLVQSGAEVKKPGASVKVSCKASGYTFADYYINWVRQAPGQGLEWMGWIFPGSGSTYYAQKLQGRVTMTTDTSTSTAYMELRSLRSDDTAVYYCARGDSGRAMDYWGQGTLVTVSS
VL: DIQMTQSPSSLSASVGDRVTITCQASQDINKYLAWYQHKPGKAPKLLIHYTSTLETGVPSRFSGSGSGTDFTFTISSLQPEDIATYYCLQYDNLLTFGGGTKVEIK
Regarding B8, in [1], the IC50 worked out at 350 pM and the “Relative Activity (normalised to 2419)” value turned out to be 1.26. In addition, in test [2], the IC50 turned out to be 3680 pM and the “Relative Activity (normalised to 2419)” value was 15.6.
